B1: Avastin-DLL4 BsAb dual-targeting antibody (bispecific antibody)
heavy: EVQLVESGGGLVQPGGSLRLSCAASGYTFTNYGMNWVRQAPGKGLEWVGWINTYTGEPTYAADFKRRFTFSLDTSKSTAYLQMNSLRAEDTAVYYCAKYPHYYGSSHWYFDVWGQGTLVTVSSASTKGPSVFPLAPSSKSTSGGTAALGCLVKDVFPEPVTVSWNSGALTSGVHTFPAVLQSSGLYSLSSVVTVPSSSLGTQTYICNVNHKPSNTKVDKKVEPKSCDKTHTCPPCPAPELLGGPSYFLFPPKPKDTLMISRTPEVTCVVVDVSHEDPEVKFNWYVDGVEVHNAKTKPREEQYNSTYRVVSVLTVLHQDWLNGKEYKCKVSNKALPAPIEKTISKAKGQPREPQVYTLPPSRHMTKNQVSLTCLVKGFYPSDIAVEWESNGQPENNYKTTPPVLDSDGSFFLYSKLTVDKSRWQQGNVFSCSVMHEALHNHYTQKSLSLSPGKGGGGSGGGGSGGGGSQSVLTQPPSASGTPGQRVTISCTGSSSNIGSNDVTWYQQLPGTAPKLLIYADSKRPSGVPDRFSGSKSGTSASLAISGLRSEDEADYYCGTWDYSLSAYVFGCGTKLTVLGGGGSGGGGSGGGGSGGGGSEVQLLESGGGLVQPGGSLRLSCAASGFTFSDYAMSWVRQAPGKCLEWVSWIYSGSGNKYYADSVKGRFTISRDNSKNTLYLQMNSLRAEDTAVYYCARADWPFDYWGQGTLVTVSS
light: not shown
notes: made in CHO cells; also called VEGF-DLL4 BsAb; dual-targeting protein
B2: MLCK-2 anti-DLL4 antibody (antibody, V domains shown)
VH: EVQLLESGGGLVQPGGSLRLSCAASGFTFSDYAMSWVRQAPGKCLEWVSWIYSGSGNKYYADSVKGRFTISRDNSKNTLYLQMNSLRAEDTAVYYCARADWPFDYWGQGTLVTVSS
VL: QSVLTQPPSASGTPGQRVTISCTGSSSNIGSNDVTWYQQLPGTAPKLLIYADSKRPSGVPDRFSGSKSGTSASLAISGLRSEDEADYYCGTWDYSLSAYVFGCGTKLTVL
notes: also called MLCK2 antibody

What was measured:
[1] = target: T1, human VEGF (hVEGF, R&D Systems, cat: 293-VE) (human, UniProt P15692-4 27-191); experiment: SPR (Biacore T200), hVEGF immobilised on CM5, antibody as analyte, bivalent binding model
T1 construct: Bought protein; also called vascular endothelial growth factor
Experimental: (§1) Specifically, Biacore T200 was used in SPR analysis and HBS-EP (10 mM HEPES, pH7.4, 150 mM NaCl, 3 mM EDTA, […] surfactant P20) was used as a running buffer. Surface preparation was done by using a surface preparation target immobilization tool of a wizard program (condition: 25° C., 5 μl/min). Ligands (hVEGF and hDLL4) were diluted in 10 mM sodium acetate buffer (pH 4.5) to final concentrations of 5 μg/ml and 4 μg/ml, respectively, and then immobilized to the surface of CM5 chip by a target immobilization level for each test group. In the immobilization process, two flow cells were included as one set wherein the first and third flow cells were set as a blank, the second flow cell has hVEGF immobilized to the surface thereof, and the fourth flow cell was set as hDLL4 in the present experiment. The first and third flow cells acted as a reference to account for experimental variability due to nonspecific bindings and buffer effects, and in the analysis, subtracted RU values (Fc2−Fc1, and Fc4−Fc3) were used as experimental results. The Avastin-DLL4 BsAb dual-targeting antibody that binds to hVEGF and hDLL4 was diluted in a running buffer to a final molar concentration of 100 nM, serially diluted 1/2 times, and each of the 5 dilutions was analyzed. The sample to be analyzed was prepared to have high purity and high concentration, enough to be diluted more than 100 times at minimum, thereby minimizing buffer effect. All analysis was done by using a wizard program, screening duplicates for each sample and a regeneration step was included in between each analysis step, so that the standard of experiment remains constant.
(§2) The experimental results were analyzed by Biaevaluation software version 4.0. At this time, to determine the RU values (Fc2−Fc1 and Fc4−Fc3), the baseline was set to zero, the value measured at a buffer injection part (analyte, 0 nM) was subtracted from a whole sensorgram. Then, the resulting RU value was analyzed by a Bivalent binding model to determine a binding affinity. The factors to be analyzed include kₐ (M⁻¹s⁻¹), kd (s⁻¹), and KD (M).

[2] = target: T2, human DLL4 protein (R&D Systems, Cat: 1506-D4/CF), extracellular domain, residues 27 to 524, C-terminal … (human, UniProt Q9NR61 27-524); experiment: SPR (Biacore T200), hDLL4 immobilised on CM5, antibody as analyte, bivalent binding model
T2 construct: range 27-524; Bought protein; also called rhDLL4; hDLL4
Experimental: as §1, §2

[3] = target: T2, human DLL4 protein (R&D Systems, Cat: …); experiment: competition ELISA: antibody premixed with human DLL4-His (600 ng/ml), transferred to plate-coated hNotch-1-hFc, bound DLL4 detected with anti-His HRP
Experimental: The neutralization effect of the Avastin-DLL4 BsAb dual-targeting antibody was assessed using an ELISA-based solution competition assay. Specifically, each well of a 96-well microtiter plate (Nunc-Immuno Plate, NUNC, Rochester, N.Y.) was coated with 100 μl of 500 ng/ml of hNotch-1-hFc protein (R&D Systems) (diluted in PBS) at 4° C. overnight, and then treated with BSA for 2 hours to block non-specific binding sites.
The Avastin-DLL4 BsAb dual-targeting antibody (purified protein) on the 96-well microtiter plate was premixed with serial dilutions of antigen protein (human DLL4-His, 600 ng/ml) at an […] concentration ranging from 0 nM to 140 nM. The antigen/antibody mixture was incubated for 30 minutes, and then transferred to a microtiter plate precoated with the DLL4 receptor hNotch-1 protein (50 ng/well) in order to measure free […]. Then, the plate was incubated for 2 hours and washed five times with 0.05% tween 20-containing PBS. In order to detect the DLL4 antigen bound to the plate, an HRP-conjugated His […] antibody reagent (Roche applied science) was diluted at a ratio of 1:800, and the washed microtiter plate was treated with the diluted antibody reagent, and then allowed to react at 37° C. for 1 hour. […]

[4] = target: T2, human DLL4 protein (R&D Systems, Cat: …); experiment: ELISA on plate-coated rhDLL4, HRP anti-Fab detection, absorbance at 450 nm; the value is column C (midpoint) of the printed 4-P fit; preparation labelled Transient; the Conc axis prints no unit, nM is taken from paragraph 139
Experimental: (§3) The binding affinities of the dual-targeting proteins for DLL4 and VEGF were assessed using an ELISA-based solution competition assay. Specifically, a 96-well plate (Nunc-Immuno Plate, NUNC, Rochester, N.Y.) was coated with 50 ng/ml of hVEGF (R&D Systems, cat: 293-VE) and 200 ng/ml of rhDLL4 (R&D Systems, cat: 1506-D4/CF) in an amount of 100 μl per well at 4° C. overnight, and non-specific binding sites were blocked with BSA (bovine serum albumin) for 2 hours. The antibody on the 96-well microtiter plate was diluted 1/5-fold from 128 nM and 64 nM, and 100 μl of each of the dilutions was added to each well of the plate coated with hDLL4 and hVEGF proteins. Then, the plate was incubated for 2 hours, and washed five times with 0.05% tween 20-containing PBS. In order to detect the plate-bound antibody, an HRP-conjugated anti-Fab antibody (Pierce, cat: 31414)) was diluted at a ratio of 1:40,000, transferred to the washed 96-well microtiter plate, and then allowed to react at 37° C. for 1 hour. After the reaction, color development was performed using a colorimetric substrate (3,3′,5,5′-tetramethylbenzidine; Sigma-Aldrich). The enzymatic reaction was stopped using 0.5 mol/l of sulfuric acid. The absorbance at 450 nm was measured using SpectraMax 190 (molecular device).

[5] = target: T1, human VEGF (hVEGF, R&D Systems, cat: …); experiment: ELISA on plate-coated hVEGF, HRP anti-Fab detection, absorbance at 450 nm; the value is column C (midpoint) of the printed 4-P fit; preparation labelled (GS pool) cell line; the Conc axis prints no unit, nM is taken from paragraph 139
Experimental: as §3

[6] = target: T2, human DLL4 protein (R&D Systems, Cat: …); experiment: ELISA on plate-coated rhDLL4, HRP anti-Fab detection, absorbance at 450 nm; the value is column C (midpoint) of the printed 4-P fit; preparation labelled (GS pool) cell line; the Conc axis prints no unit, nM is taken from paragraph 139
Experimental: as §3

[7] = target: T1, human VEGF (hVEGF, R&D Systems, cat: …); experiment: ELISA on plate-coated hVEGF, HRP anti-Fab detection, absorbance at 450 nm; the value is column C (midpoint) of the printed 4-P fit y = (A - D)/(1 + (x/C)^B) + D; preparation labelled Transient; the Conc axis prints no unit, nM is taken from paragraph 139 (dilutions from 128 nM and 64 nM)
Experimental: as §3

[8] = target: T3, human DLL4 (27-251)-Fc alanine substitution mutant at position 64 (histidine) (human, UniProt Q9NR61 27-251); experiment: Western blot of mutant DLL4 (27-251)-Fc, detected with HRP anti-human Fab
T3 construct: range 27-251; also called amino acid mutant at position 64; not shown: Fc protein
Experimental: The mutant expression media incubated for 4 days were centrifuged at 1000 rpm at room temperature for 10 minutes to remove the suspended material, and then filtered through a 0.45-μm syringe. For Western blotting analysis, the level of the protein in the mutant expression media were quantified using Octet® system (ForteBio) so that a uniform amount of the mutant would be loaded on SDS gel. Next, 20 μl of each of the mutant expression media was loaded on each of two Novex 4-12% Bis/Tris gels, and subjected to gel electrophoresis using MOPS buffer at 140 V for 50 minutes. As a control, a protein encoding a deletion fragment (amino acid residues 27 to 251) of the extracellular domain of wild-type DLL4 was used. After completion of the electrophoresis, the protein band was transferred to a polyvinylidene difluoride membrane. A total of two processes were performed.

T1 sequence (P15692 other isoform, or with tags, fused parts or gaps limits assumed): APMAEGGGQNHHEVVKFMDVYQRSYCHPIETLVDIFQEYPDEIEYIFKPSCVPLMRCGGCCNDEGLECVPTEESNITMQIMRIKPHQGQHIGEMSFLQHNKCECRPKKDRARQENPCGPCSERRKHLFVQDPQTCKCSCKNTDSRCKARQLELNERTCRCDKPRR
T2 sequence (Q9NR61 other isoform, or with tags, fused parts or gaps limits assumed): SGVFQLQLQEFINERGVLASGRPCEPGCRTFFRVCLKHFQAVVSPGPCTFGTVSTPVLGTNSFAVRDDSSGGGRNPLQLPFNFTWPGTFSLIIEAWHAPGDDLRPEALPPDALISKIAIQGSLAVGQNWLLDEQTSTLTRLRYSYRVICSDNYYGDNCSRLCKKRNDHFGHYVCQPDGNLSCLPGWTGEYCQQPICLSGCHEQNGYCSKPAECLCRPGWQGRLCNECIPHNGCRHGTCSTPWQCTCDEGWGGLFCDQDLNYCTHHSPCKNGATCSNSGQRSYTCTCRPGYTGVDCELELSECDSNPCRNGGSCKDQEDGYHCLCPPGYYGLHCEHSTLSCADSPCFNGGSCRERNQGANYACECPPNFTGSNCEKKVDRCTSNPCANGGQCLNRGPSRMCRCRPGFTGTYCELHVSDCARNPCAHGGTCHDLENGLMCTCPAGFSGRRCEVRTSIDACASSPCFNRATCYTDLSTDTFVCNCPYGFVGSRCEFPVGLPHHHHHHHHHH
T3 sequence (Q9NR61 other isoform, or with tags, fused parts or gaps mutant limits assumed): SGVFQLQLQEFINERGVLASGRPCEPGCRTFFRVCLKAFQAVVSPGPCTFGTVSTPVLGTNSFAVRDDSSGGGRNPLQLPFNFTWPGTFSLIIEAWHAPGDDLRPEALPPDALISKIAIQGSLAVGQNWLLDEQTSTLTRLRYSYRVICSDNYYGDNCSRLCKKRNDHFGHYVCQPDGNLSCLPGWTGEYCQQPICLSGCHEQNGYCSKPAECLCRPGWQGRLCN

Row | Binder | Kd [1] [pM] | koff [1] [s⁻¹] | kon [1] [M⁻¹ s⁻¹] | Kd [2] [pM] | koff [2] [s⁻¹] | kon [2] [M⁻¹ s⁻¹] | IC50 [3] [pM] | EC50 [4] [pM] | EC50 [5] [pM] | EC50 [6] [pM] | EC50 [7] [pM] | binding result [8]
1 | B1 | 126 | 1.68e-06 | 13400 | 30200 | 0.000587 | 19400 | 1120 | 264 | 430 | 261 | 337 | –
2 | B2 | – | – | – | – | – | – | – | – | – | – | – | no binding (tested: 1 µg/mL)

Source: patent publication US20160159929A1 (ABLBIO, published 2016)
